{"source": "patent US20110274694", "proteins": {"B1": {"name": "His6-Erk2 (purified, wild-type) (protein)", "chain": "MAAAAAAGPEMVRGQVFDVGPRYTNLSYIGEGAYGMVCSAYDNLNKVRVAIKKISPFEHQTYCQRTLREIKILLRFRHENIIGINDIIRAPTIEQMKDVYIVQDLMETDLYKLLKTQHLSNDHICYFLYQILRGLKYIHSANVLHRDLKPSNLLLNTTCDLKICDFGLARVADPDHDHTGFLTEYVATRWYRAPEIMLNSKGYTKSIDIWSVGCILAEMLSNRPIFPGKHYLDQLNHILGILGSPSQEDLNCIINLKARNYLLSLPHKNKVPWNRLFPNADSKALDLLDKMLTFNPHKRIEVEQALAHPYLEQYYDPSDEPIAEAPFKFDMELDDLPKEKLKELIFEETARFQPGYRS"}}, "biological_target": "purified Gβγ (G-protein βγ-subunits)"}
{"protein": "B1", "values": [{"measurement": "phosphorylation of Erk2 ([32P]-autoradiography)", "result": "caused increased phosphorylation of Erk2 to an extent similar to that caused by Mek*"}]}
